Source: paper PMC7327498, “Structural basis of semaphorin‐plexin cis interaction” (The EMBO Journal, 2020)
Numbering of substitutions follows the chain as printed. Values belong to the molecule of their own block, whether it stands above or below them.

What was measured:
[1] = biological target: PlexA_(ecto) (Drosophila melanogaster) (UniProt Q9V491); assay: AUC; sedimentation velocity, 15 mM HEPES pH 7.4, 150 mM NaCl, 40,000 rpm; PlexA1‐4 at 33 μM, PlexA_(ecto) at 2.2 μM
PlexA‐mClover = biological target: T1, PlexA‐mClover (Drosophila melanogaster, UniProt Q9V491 28-1311); assay: FRET or BRET; FRET-FLIM in live COS-7 cells transiently co-transfected with PlexA‐mClover (donor) and semaphorin‐mRuby2 (acceptor), cis on one cell surface, 37°C; donor alone τav 2.72 ± 0.03 ns; conditions: partners not purified
T1 construct: Plexin A (PlexA), Drosophila melanogaster, residues 28–1,311: ectodomain followed by a transmembrane segment; not the purified PlexA‐mClover (residues 67–1,274) used as donor-only control in solution; also called FRET donor PlexA‐mClover; source: COS-7, transiently transfected, on live cells; not shown: mClover, C-terminal, kept
T1 sequence (looked up): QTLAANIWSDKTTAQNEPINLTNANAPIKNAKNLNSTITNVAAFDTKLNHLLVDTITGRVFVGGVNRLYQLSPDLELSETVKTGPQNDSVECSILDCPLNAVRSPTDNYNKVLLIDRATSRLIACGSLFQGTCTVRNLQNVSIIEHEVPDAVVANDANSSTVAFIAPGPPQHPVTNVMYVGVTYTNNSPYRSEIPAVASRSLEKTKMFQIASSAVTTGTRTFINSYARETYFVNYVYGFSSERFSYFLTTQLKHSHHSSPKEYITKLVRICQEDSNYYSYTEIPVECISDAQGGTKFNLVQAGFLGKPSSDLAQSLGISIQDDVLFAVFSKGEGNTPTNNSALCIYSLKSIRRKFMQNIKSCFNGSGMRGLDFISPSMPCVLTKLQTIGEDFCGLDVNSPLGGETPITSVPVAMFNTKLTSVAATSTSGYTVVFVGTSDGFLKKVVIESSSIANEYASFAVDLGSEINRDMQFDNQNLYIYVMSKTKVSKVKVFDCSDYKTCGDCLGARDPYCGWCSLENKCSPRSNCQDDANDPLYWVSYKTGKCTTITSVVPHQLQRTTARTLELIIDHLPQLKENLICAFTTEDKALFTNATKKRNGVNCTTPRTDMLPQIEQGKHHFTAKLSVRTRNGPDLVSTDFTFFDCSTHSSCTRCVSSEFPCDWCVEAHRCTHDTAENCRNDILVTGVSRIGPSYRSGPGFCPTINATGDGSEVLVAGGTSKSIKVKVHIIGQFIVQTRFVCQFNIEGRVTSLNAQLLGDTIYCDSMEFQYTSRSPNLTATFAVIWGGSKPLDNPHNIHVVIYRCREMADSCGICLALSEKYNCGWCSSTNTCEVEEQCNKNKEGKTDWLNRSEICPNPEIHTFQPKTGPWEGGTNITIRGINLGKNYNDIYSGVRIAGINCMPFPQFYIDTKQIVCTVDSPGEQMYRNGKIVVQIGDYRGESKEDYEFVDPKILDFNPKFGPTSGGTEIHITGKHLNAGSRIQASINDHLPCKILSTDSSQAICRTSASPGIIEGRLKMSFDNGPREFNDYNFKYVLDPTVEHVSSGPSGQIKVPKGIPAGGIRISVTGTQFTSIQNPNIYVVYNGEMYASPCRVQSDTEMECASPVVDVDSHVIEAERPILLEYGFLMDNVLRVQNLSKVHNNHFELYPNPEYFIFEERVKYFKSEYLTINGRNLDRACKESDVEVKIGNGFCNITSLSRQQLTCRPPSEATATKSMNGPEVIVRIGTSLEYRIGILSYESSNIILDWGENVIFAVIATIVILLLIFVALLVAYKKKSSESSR

PlexA1‐4‐mVenus [2] = biological target: T2, PlexA1‐4‐mVenus (Drosophila melanogaster, UniProt Q9V491 28-730); assay: MST; fluorescent PlexA1‐4‐mVenus kept constant, unlabelled Sema1b_(ecto) or mutants titrated; 28°C, 15 mM HEPES pH 7.4, 150 mM NaCl, 2 mM CaCl2, 0.05% Tween‐20; 80% MST power; conditions: both partners purified
T2 construct: Plexin A (PlexA), Drosophila melanogaster, domains 1-4, residues 28–730; monoVenus follows PlexA1-4 and is followed by the His6 tag; source: HEK 293T, transient transfection, purified (HisTrap, SEC); not shown: mVenus, C-terminal, kept
T2 sequence (looked up): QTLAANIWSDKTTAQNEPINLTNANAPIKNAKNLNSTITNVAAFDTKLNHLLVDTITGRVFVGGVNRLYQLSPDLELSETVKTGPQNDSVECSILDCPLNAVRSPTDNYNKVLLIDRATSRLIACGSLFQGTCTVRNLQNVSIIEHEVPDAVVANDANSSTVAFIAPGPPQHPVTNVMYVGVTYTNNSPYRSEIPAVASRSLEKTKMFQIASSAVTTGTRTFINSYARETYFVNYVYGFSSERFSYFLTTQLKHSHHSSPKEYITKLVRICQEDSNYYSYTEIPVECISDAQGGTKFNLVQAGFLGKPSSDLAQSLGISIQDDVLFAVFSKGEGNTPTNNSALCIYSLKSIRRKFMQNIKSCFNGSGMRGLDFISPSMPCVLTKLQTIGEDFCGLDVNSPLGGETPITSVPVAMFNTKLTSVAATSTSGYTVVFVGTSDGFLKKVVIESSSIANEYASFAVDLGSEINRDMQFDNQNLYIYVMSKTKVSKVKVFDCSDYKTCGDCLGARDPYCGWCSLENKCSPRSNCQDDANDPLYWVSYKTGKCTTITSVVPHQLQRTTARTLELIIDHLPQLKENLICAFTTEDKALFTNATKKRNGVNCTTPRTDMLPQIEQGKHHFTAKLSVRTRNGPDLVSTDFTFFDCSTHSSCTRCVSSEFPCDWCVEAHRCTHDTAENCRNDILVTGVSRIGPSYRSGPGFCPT

PlexA1‐4‐mVenus [3] = biological target: T3, PlexA1‐4‐mVenus (Drosophila melanogaster, UniProt Q9V491 28-730); assay: MST
T3 chain: T2 sequence (looked up)

stoichiometry N [1]: < 4
Molecule: PlexA_(ecto) (from UniProt Q9V491 28-1272) (domain or fragment)

average donor lifetime (τav) (PlexA‐mClover): 2.53 ± 0.04 ns | average fraction of the interacting donor (fD) (PlexA‐mClover): 0.21 ± 0.07
B1: Sema1b‐mutB‐mRuby2 (ligand, Drosophila melanogaster, UniProt Q7KK54 37-686, looked up)
chain: DVKPDLQTKQDKVLAHFIGNSTDYFKILDHNDEFVLVGAKDVIYNVSLNGLKEIARLEWHSTDADRELCALKGKHEWDCHNYLRVYALRPNGEVLLCGTNSYKPRCRHYTPVEVSSEEAGSAGHAHAMRYEVSRDVEAQGLCPYSPAHNSTYAFADGHLYSATVADFSGGDPLIYRENLRTEQYDLKQLNQPDFVGAIERNGYVLFFFRELSMEVMNFGKAVYSRVARVCKNDRGGPYSHGKSWTSFLKARLNCSVPGEFPFYFDEIQAISPIVESGSKSLIYAVFTTSVNAIPGSAVCAFNVDDILAAFDGEAAAAAAAAAAAAAAAAAAVPKPRPGQCVEDSRTLTSIAVNFIKNHPLMEEAVPAVHGRPLLTKVNLHHRLTAIAVHPQVKSLSGAYYDVIYSGTDDGKVTKFINILSTHPNSTVDRLKTVVISEMQVLPLGTPIRELVISTSKNSLVVVSDGSLVSVPLHHCSHIVDCLGCLSLQDPICAWDLQTHECKNLATSQHKFGTKTYLQSLNSTKKAAALLCPHIPRDAPGAETVSFVTMAPPPTEEQKLLYSNVGSSQGNQPSLEQQPTGGDDFGLNKITLTSMDPDDIMPNLNDPQKSTASVDEIKYASTPSFMLLTTIVFFTFLVGGIAGICCVKAKS
notes: Semaphorin 1b (Sema1b), Drosophila melanogaster, residues 37–686, loop 350–367 replaced by alanines; source: COS-7, transiently transfected, on live cells; not shown: mRuby2, C-terminal, kept

binding result (PlexA1‐4‐mVenus [2]): binds
B2: Sema1b_(ecto)‐mutB (domain or fragment, Drosophila melanogaster, UniProt Q7KK54 37-659, looked up)
chain: DVKPDLQTKQDKVLAHFIGNSTDYFKILDHNDEFVLVGAKDVIYNVSLNGLKEIARLEWHSTDADRELCALKGKHEWDCHNYLRVYALRPNGEVLLCGTNSYKPRCRHYTPVEVSSEEAGSAGHAHAMRYEVSRDVEAQGLCPYSPAHNSTYAFADGHLYSATVADFSGGDPLIYRENLRTEQYDLKQLNQPDFVGAIERNGYVLFFFRELSMEVMNFGKAVYSRVARVCKNDRGGPYSHGKSWTSFLKARLNCSVPGEFPFYFDEIQAISPIVESGSKSLIYAVFTTSVNAIPGSAVCAFNVDDILAAFDGEAAAAAAAAAAAAAAAAAAVPKPRPGQCVEDSRTLTSIAVNFIKNHPLMEEAVPAVHGRPLLTKVNLHHRLTAIAVHPQVKSLSGAYYDVIYSGTDDGKVTKFINILSTHPNSTVDRLKTVVISEMQVLPLGTPIRELVISTSKNSLVVVSDGSLVSVPLHHCSHIVDCLGCLSLQDPICAWDLQTHECKNLATSQHKFGTKTYLQSLNSTKKAAALLCPHIPRDAPGAETVSFVTMAPPPTEEQKLLYSNVGSSQGNQPSLEQQPTGGDDFGLNKITLTSMDPDDIMPNLNDPQKSTASVDEIKYASTPS
notes: Semaphorin 1b (Sema1b), Drosophila melanogaster, ectodomain, residues 37–659, Exβ1‐β2 loop 350–367 replaced by alanines; synthetic clone (Invitrogen-GeneArt); also called Sema1b‐mutB; Sema1b‐mutant B; source: HEK 293T, transient transfection, purified (HisTrap, SEC)

average donor lifetime (τav) (PlexA‐mClover): 2.51 ± 0.06 ns | average fraction of the interacting donor (fD) (PlexA‐mClover): 0.26 ± 0.09
B3: Sema1b‐mRuby2 (ligand, Drosophila melanogaster, UniProt Q7KK54 37-686, looked up)
chain: DVKPDLQTKQDKVLAHFIGNSTDYFKILDHNDEFVLVGAKDVIYNVSLNGLKEIARLEWHSTDADRELCALKGKHEWDCHNYLRVYALRPNGEVLLCGTNSYKPRCRHYTPVEVSSEEAGSAGHAHAMRYEVSRDVEAQGLCPYSPAHNSTYAFADGHLYSATVADFSGGDPLIYRENLRTEQYDLKQLNQPDFVGAIERNGYVLFFFRELSMEVMNFGKAVYSRVARVCKNDRGGPYSHGKSWTSFLKARLNCSVPGEFPFYFDEIQAISPIVESGSKSLIYAVFTTSVNAIPGSAVCAFNVDDILAAFDGEFKSQKDSQSHWLPVEREQVPKPRPGQCVEDSRTLTSIAVNFIKNHPLMEEAVPAVHGRPLLTKVNLHHRLTAIAVHPQVKSLSGAYYDVIYSGTDDGKVTKFINILSTHPNSTVDRLKTVVISEMQVLPLGTPIRELVISTSKNSLVVVSDGSLVSVPLHHCSHIVDCLGCLSLQDPICAWDLQTHECKNLATSQHKFGTKTYLQSLNSTKKAAALLCPHIPRDAPGAETVSFVTMAPPPTEEQKLLYSNVGSSQGNQPSLEQQPTGGDDFGLNKITLTSMDPDDIMPNLNDPQKSTASVDEIKYASTPSFMLLTTIVFFTFLVGGIAGICCVKAKS
notes: Semaphorin 1b (Sema1b), Drosophila melanogaster, residues 37–686: ectodomain followed by a transmembrane segment; also called wild‐type Sema1b‐mRuby2; source: COS-7, transiently transfected, on live cells; not shown: mRuby2, C-terminal, kept

average donor lifetime (τav) (PlexA‐mClover): 2.43 ± 0.1 ns | average fraction of the interacting donor (fD) (PlexA‐mClover): 0.37 ± 0.15
B4: Sema1b‐mutA‐mRuby2 (ligand, Drosophila melanogaster, UniProt Q7KK54 37-686, looked up)
chain: B3 chain with F167E, Q183R, K187E
notes: Semaphorin 1b (Sema1b), Drosophila melanogaster, residues 37–686, site A mutant; source: COS-7, transiently transfected, on live cells; not shown: mRuby2, C-terminal, kept

Kd (PlexA1‐4‐mVenus [3]): 586 nM | binding result (PlexA1‐4‐mVenus [2]): binds
B5: Sema1b_(ecto) (domain or fragment, Drosophila melanogaster, UniProt Q7KK54 37-659, looked up)
chain: DVKPDLQTKQDKVLAHFIGNSTDYFKILDHNDEFVLVGAKDVIYNVSLNGLKEIARLEWHSTDADRELCALKGKHEWDCHNYLRVYALRPNGEVLLCGTNSYKPRCRHYTPVEVSSEEAGSAGHAHAMRYEVSRDVEAQGLCPYSPAHNSTYAFADGHLYSATVADFSGGDPLIYRENLRTEQYDLKQLNQPDFVGAIERNGYVLFFFRELSMEVMNFGKAVYSRVARVCKNDRGGPYSHGKSWTSFLKARLNCSVPGEFPFYFDEIQAISPIVESGSKSLIYAVFTTSVNAIPGSAVCAFNVDDILAAFDGEFKSQKDSQSHWLPVEREQVPKPRPGQCVEDSRTLTSIAVNFIKNHPLMEEAVPAVHGRPLLTKVNLHHRLTAIAVHPQVKSLSGAYYDVIYSGTDDGKVTKFINILSTHPNSTVDRLKTVVISEMQVLPLGTPIRELVISTSKNSLVVVSDGSLVSVPLHHCSHIVDCLGCLSLQDPICAWDLQTHECKNLATSQHKFGTKTYLQSLNSTKKAAALLCPHIPRDAPGAETVSFVTMAPPPTEEQKLLYSNVGSSQGNQPSLEQQPTGGDDFGLNKITLTSMDPDDIMPNLNDPQKSTASVDEIKYASTPS
notes: Semaphorin 1b (Sema1b), Drosophila melanogaster, ectodomain, residues 37–659; pHLsec vector; monomer in solution according to the authors' earlier work; also called Sema1b ectodomain; wild-type Sema1b_(ecto); source: HEK 293T, transient transfection, purified from conditioned medium (HisTrap, SEC)

binding result (PlexA1‐4‐mVenus [2]): binds
B6: Sema1b_(ecto)‐mutA (domain or fragment, Drosophila melanogaster, UniProt Q7KK54 37-659, looked up)
chain: B5 chain with F167E, Q183R, K187E
notes: Semaphorin 1b (Sema1b), Drosophila melanogaster, ectodomain, residues 37–659, site A mutant; also called Sema1b‐mutA; Sema1b‐mutant A; source: HEK 293T, transient transfection, purified (HisTrap, SEC)
